We go through ten molecules from patent US20240109974A1 (SHANDONG SIMCERE BIOPHARMACEUTICAL, published 2024).

Test [1] deals with T1, human TNFR2 on the surface of CHO-TNFR2 cells (human, UniProt P20333 23-461).
T1 construct: whole, on cells
T1 sequence (looked up): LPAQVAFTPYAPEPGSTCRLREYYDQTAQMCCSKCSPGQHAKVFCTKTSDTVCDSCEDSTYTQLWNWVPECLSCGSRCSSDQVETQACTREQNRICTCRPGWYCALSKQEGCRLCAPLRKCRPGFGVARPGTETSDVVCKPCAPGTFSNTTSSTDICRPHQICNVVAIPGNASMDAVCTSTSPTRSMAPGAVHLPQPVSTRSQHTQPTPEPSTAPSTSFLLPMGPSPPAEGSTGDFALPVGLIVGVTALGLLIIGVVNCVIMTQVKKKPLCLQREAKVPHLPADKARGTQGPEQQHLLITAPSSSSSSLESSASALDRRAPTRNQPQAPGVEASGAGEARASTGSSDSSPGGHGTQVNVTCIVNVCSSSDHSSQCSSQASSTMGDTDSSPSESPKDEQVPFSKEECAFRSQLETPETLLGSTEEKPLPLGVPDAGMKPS
Briefly: flow cytometry on CHO-TNFR2 cells; AUC against 001-WT. On the procedure: (§1) The transfected full-length plasmid of human TNFR2 was purchased from Sino Biological (Cat #HG10417-UT, NCBI Ref Seq: NM_001066.2). The experiment was conducted at a cell density within 80%. The cell medium was discarded; the cells were rinsed with PBS, and digested with 1 ml trypsin for 2 minutes; the digestion was stopped with a Ham's F12 complete medium containing 10% FBS, and then a cell suspension was made. The cell suspension was counted, and then an appropriate amount of cell suspension was centrifuged at 350×g; the supernatant was discarded; a corresponding volume of blocking solution (10% FBS+PBS) at a density of 1×10⁷ cells/ml was added to resuspend the cells, and the mixture was incubated at 4° C. for 30 minutes. After the incubation, the mixture was centrifuged at 350×g to remove the supernatant, and the cells were resuspended in a staining buffer (2% FBS+PBS) to a density of 2×10⁶ cells/ml, and spread onto a 96-well plate, with 50 μl of cell suspension added to each well for later use. The antibody was diluted with PBS for 10-fold gradient dilution from the highest concentration of 20 μg/m (twice the concentration); the diluted antibody was added to the well containing 50 μl of cell suspension, and placed on a microplate shaker for shaking at 500 rpm for 1 minute, so that the antibody was fully mixed with the cells; the mixture was incubated at 4° C. for 1 h. After the incubation, the cells were washed twice with the staining buffer, with 100 μl per well, and centrifuged at 350-g for 5 minutes, and the supernatant was discarded. The PE goat anti-Human IgG Fc antibody (ebioscience, Cat #12-4998-82) was diluted 250-fold with the staining buffer, with a volume of 100 μl per well added to the washed cell wells; the mixture was mixed evenly, and stained at 4° C. for 30 minutes. After the staining, similarly, the cells were washed twice with the staining buffer; finally, the cells were resuspended in 200 μl of staining buffer; signals were detected by a flow cytometer (Thermo Attune NxT). The stronger the signal, the stronger the binding ability of an antibody to TNFR2. The binding curve of an antibody was drawn with antibody concentration as the abscissa and corresponding mean fluorescence intensity (MFI) fold as the ordinate, and fitted with four parameters (GraphPad Prism9) to calculate the EC50 value.

Test [2] deals with T1, human TNFR2 on the surface of CHO-TNFR2 …. The experiment in a line: flow cytometry on CHO-TNFR2 cells; EC50 against 219-WT. The method, then:
as §1

For test [3], the target named is T2, Cynomolgus TNFR2-His (Sino 90102-C08H) (cynomolgus monkey, UniProt A0A2K5VET2 132-366).
T2 construct: Bought protein; also called cynomolgus monkey TNFR2; recombinant cynomolgus monkey TNFR2 protein; not shown: His tag
T2 sequence: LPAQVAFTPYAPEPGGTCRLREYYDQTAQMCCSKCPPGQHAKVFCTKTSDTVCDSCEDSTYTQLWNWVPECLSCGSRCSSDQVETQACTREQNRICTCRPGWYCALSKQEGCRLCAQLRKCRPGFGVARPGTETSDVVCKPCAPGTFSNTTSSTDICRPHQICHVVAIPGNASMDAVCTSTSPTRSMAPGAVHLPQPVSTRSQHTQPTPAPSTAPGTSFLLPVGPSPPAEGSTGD
The experiment in a line: ELISA, cynomolgus TNFR2-His coated; EC50 against 219-WT. The method, then:
The test humanized antibody against TNFR2 (as described in Example 1, the antibody was comprised of variable regions linked to IgG-Fc; the WT chimeric antibody also adopted the IgG-Fc structure) was subjected to 3.33-fold gradient dilution, loaded with 100 μl/well, and incubated with shaking at room temperature for 1.5 hours. The plate was washed, and then a working solution of murine anti-human IgG Fc-HRP (diluted at 1:10000) was added, loaded with 100 μl/well, and incubated with shaking at room temperature for 1.0 hour. The plate was washed again, and then the substrate TMB of HRP was added to develop colour. A stop solution was added to stop the reaction, and then a microplate reader (MD 13) was used to read the absorbance value. The binding curve of an antibody was drawn with antibody concentration as the abscissa and corresponding OD value as the ordinate, and fitted with four parameters (GraphPad Prism9) to calculate the EC50 value. The smaller the EC50 value, the stronger the binding ability of an antibody to human/cynomolgus monkey TNFR2. The binding effect of a humanized antibody was normalized to its corresponding human-murine chimeric antibody WT (see SEQ ID NOs: 38-43 for the sequence). The higher the percentage value, the better the binding effect of the humanized antibody. The results of binding of an anti-TNFR2 antibody to a human TNFR2 protein are shown in FIG. 1 and Table 4, and the results of binding of an anti-TNFR2 antibody to cynomolgus monkey TNFR2 are shown in FIG. 2 and Table 4.

Numbering of substitutions follows the chain as printed.

B1: 001-Hu5 (antibody, V domains shown)
VH: EVQLVESGGGLVQPGGSLRLSCAASGFAFSTYDLSWVRQAPGKGLEWVAYINNGGISTYYSDTVKGRFTISRDNAKNTLYLQMNSLRAEDTAVYYCVRGPFYGSANYFDYWGQGTLVTVSS
VL: DIQMTQSPSSLSASVGDRVTITCRTSESIYSNLPWYQQKPGKSPKLLVYDATKLAEGVPSRFSGSGSGTDYTLTISSLQPEDFATYYCQHFWVTPWTFGQGTKVEIK
notes: Humanized form of #001; also called VH1 + VL4
B1: the “% Relative activity (Test antibody/WT antibody)” value in test [1] is 87.8%.

B2: 001-Hu1 (antibody, V domains shown)
VH: B1 VH
VL: B1 VL with S43A, V48L
notes: Humanized form of #001; also called VH1 + VL1
In the case of B2, in test [1], the “% Relative activity (Test antibody/WT antibody)” value was found to be 93.4%.

B3: 001-Hu3 (antibody, V domains shown)
VH: B1 VH
VL: B1 VL with S43A, V48I
notes: Humanized form of #001; also called VH1 + VL3
Consider B3, for which the “% Relative activity (Test antibody/WT antibody)” value in test [1] was found to be 87.8%.

B4: 001-Hu4 (antibody, V domains shown)
VH: B1 VH with T78S
VL: B1 VL
notes: Humanized form of #001; also called VH2 + VL4
For B4, the “% Relative activity (Test antibody/WT antibody)” value in test [1] was determined as 92.2%.

B5: 001-Hu2 (antibody, V domains shown)
VH: B1 VH with T78S
VL: B1 VL with V48I, Y71F
notes: Humanized form of #001; also called VH2 + VL2
Take B5: in test [1], the “% Relative activity (Test antibody/WT antibody)” value is 88.2%.

B6: 219-Hu3 (antibody, V domains shown)
VH: QVQLVQSGAEVKKPGSSVKVSCKASGYSFTNYWMNWVRQAPGQGLEWMGMIHPSDTETRLNQNFKDRVTITADKSTSTAYMELSSLRSEDTAVYYCARGEGLGAARSVSMDYWGQGTLVTVSS
VL: DIQMTQSPSSLSASVGDRVTITCRASQDISNYLNWYQQKPDGTVKLLIYYTAILHSGVPSRFSGSGSGTDYSLTISSLQPEDFATYFCQQGNTLPWTFGQGTKVEIK
notes: also called VH5 + VL5
Turning to B6, the “% Relative activity (WT antibody/test antibody)” value in test [2] came to 145%; in test [3], 90.4%.

B7: 219-Hu4 (antibody, V domains shown)
VH: B6 VH with R38K, M48I, R67K, V68A, I70L, A72V
VL: B6 VL
notes: also called VH6 + VL5
As for B7, the “% Relative activity (WT antibody/test antibody)” value in test [2] came out at 142%; in test [3], 93.1%.

B8: 219-Hu2 (antibody, V domains shown)
VH: B6 VH with R67K, V68A
VL: B6 VL
notes: also called VH4 + VL5
Take B8: the “% Relative activity (WT antibody/test antibody)” value turned out to be 97.1% in test [2] and 102% in test [3].

B9: 219-Hu1 (antibody, V domains shown)
VH: B6 VH with S16A, G44R, A72R, K74T, T76A
VL: B6 VL
notes: also called VH3 + VL5
Take B9: the results for the “% Relative activity (WT antibody/test antibody)” value in test [2] and in test [3] were 100% and 77.5%, respectively.

B10: 219-Hu5 (antibody, V domains shown)
VH: B6 VH with A72V
VL: B6 VL
notes: also called VH7 + VL5
B10: the “% Relative activity (WT antibody/test antibody)” value in test [2] stood at 147%; in test [3] it was 93.4%.
